We go through one substance from doi:10.1101/2022.06.09.495453.

The target in this assay is SHLD2^1-95 (human). Nature of the assay: SEC-MALS. On the technique in general: Size exclusion chromatography separates by hydrodynamic size, large species first.

REV7 of the SHLD3-SHLD2^1-95-REV7 ternary complex (Shieldin), sequence (Q9UI95 whole entry, one chain of several): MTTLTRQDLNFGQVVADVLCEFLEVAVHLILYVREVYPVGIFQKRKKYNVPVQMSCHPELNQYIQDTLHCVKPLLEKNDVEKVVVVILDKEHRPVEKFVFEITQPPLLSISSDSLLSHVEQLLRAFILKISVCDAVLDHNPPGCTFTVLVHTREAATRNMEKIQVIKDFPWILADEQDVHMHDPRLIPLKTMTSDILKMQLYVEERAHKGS

As for “REV7 of the SHLD3-SHLD2^1-95-REV7 ternary complex (Shieldin) (from UniProt Q9UI95 1-211) (natural protein)”, the stoichiometry N (REV7 per SHLD2^1-95) is 2.
